The record followed here is patent US20230340607A1 (UNIVERSITY OF PITTSBURGH OF THE COMMONWEALTH SYSTEM OF …, published 2023).

In one experiment the target is T1, integrin β1 (UniProt P05556 21-798).
T1 construct: also called ITGB1; integrin B1
The experiment can be described thus: co-immunoprecipitation with anti-RAD51AP1 antibody from T47D cell lysate, immunoblot. As for the experimental part: (§1) To identify the key molecules important for RAD51AP1-DYRK4 to modulate MEK signaling, the RAD51AP1 interactants were investigated with the Entrez Gene database. […] Immuno-precipitation was performed using the RAD51AP1 antibody in the T47D cells overexpressing E9-E2 or wtRAD51AP1.
(§2) Immunoprecipitation. The cells were seeded in 10 cm² dishes with 200 ng/ml for one week. After one week doxycycline treatment, doxycycline-induced T47D OE cells were freshly harvested and lysed in NETN-400 buffer ([…] Tris-HCL, pH 8.0, […] NaCl, 1 mM EDTA, and 0.5% Nonidet P-40) for 25 minutes on ice and then centrifugated for 25 minutes at 14,500 rpm. The supernatants were diluted with the same buffer without NaCl (NETN-0) to obtain a final concentration of NaCl at 150 mM and incubated with indicated antibodies for 2 hours at 4° C., and then added protein-G beads (Santa Cruz) overnight. The beads were washed three times with cell lysis buffer and the precipitated proteins were subjected to western blot analysis.
In general terms: A western blot detects proteins with antibodies after separation by electrophoresis.

Another experiment addresses c-Src (UniProt P12931 2-536). Described as above. As for the experimental part:
as §1, §2

T1 sequence (P05556 21-798 limits assumed): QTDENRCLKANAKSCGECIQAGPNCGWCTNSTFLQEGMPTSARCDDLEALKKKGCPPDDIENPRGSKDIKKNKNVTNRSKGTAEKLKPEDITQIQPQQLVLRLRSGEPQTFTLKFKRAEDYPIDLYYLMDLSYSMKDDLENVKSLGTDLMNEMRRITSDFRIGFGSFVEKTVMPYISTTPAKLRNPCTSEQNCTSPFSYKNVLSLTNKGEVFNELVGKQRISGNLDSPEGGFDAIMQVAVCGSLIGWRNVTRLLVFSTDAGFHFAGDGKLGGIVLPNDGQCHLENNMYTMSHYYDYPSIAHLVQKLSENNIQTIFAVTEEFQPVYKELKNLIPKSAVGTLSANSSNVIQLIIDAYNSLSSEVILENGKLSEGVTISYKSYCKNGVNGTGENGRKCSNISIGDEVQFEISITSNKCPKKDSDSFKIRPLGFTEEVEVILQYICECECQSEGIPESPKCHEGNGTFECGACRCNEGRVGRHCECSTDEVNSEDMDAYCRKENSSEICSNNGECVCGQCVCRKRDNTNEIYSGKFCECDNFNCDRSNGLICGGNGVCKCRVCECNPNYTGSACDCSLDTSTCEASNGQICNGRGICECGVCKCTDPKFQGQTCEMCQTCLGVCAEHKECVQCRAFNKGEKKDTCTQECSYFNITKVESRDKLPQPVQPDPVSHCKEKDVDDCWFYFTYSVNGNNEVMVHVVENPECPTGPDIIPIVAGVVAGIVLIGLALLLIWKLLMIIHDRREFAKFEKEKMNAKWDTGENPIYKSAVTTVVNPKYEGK

B1: RAD51AP1-DYRK4 fusion protein (E9-E2 variant) (other)
chain: MVRPVRHKKPVNYSQFDHSDSDDDFVSATVPLNKKSRTAPKELKQDKPKPNLNNLRKEEIPVQEKTPKKRMALDDKLYQRDLEVALALSVKELPTVTTNVQNSQDKSIEKHGSSKIETMNKSPHISNCSVASDYLDLDKITVEDDVGGVQGKRKAASKAAAQQRKILLEGSDGDSANDTEPDFAPGEDSEDDSDFCESEDNDEDFSMRKSKVKEIKKKEVKVKSPVEKKEKKSKSKCNALVTSVDSAPAAVKSESQSLPKKVSLSSDTTRKPLEIRSPSAESKKPKWVPPGLKWMLKSQGNVI
notes: Expressed from a doxycycline-inducible lentiviral vector in T47D cells (co-IP, western blot), or endogenous in MDAMB361 cells (western blot); also called E9-E2 protein; E9E2 fusion
As for B1, the binding result in the experiment with integrin β1 and with c-Src was “no binding” in each case.
